From paper PMC4571948, “Identification of a Novel Sequence Motif Recognized by the Ankyrin Repeat Domain of zDHHC17/13 S-Acyltransferases*” (The Journal of Biological Chemistry, 2015)

Target: T1, GST-17NAnk (GST-tagged N-terminal (1–305) zDHHC17) (murine, UniProt Q80TN5 1-305)
T1 construct: zDHHC17, murine cDNA, N-terminal residues 1–305 with the AR domain; also called GST-17Ank; GST-tagged AR-containing cytosolic region of zDHHC17; source: E. coli BL21(DE3)pLysS, purified (glutathione resin)
T1 sequence (looked up): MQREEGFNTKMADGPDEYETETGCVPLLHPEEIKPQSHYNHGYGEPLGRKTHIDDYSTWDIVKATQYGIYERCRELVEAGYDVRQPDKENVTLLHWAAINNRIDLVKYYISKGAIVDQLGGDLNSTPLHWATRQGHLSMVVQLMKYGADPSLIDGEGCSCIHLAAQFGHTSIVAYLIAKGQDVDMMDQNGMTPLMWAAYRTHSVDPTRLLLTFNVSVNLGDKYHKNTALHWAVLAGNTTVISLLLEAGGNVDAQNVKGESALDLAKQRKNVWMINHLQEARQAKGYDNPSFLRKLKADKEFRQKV
Test: pull-down; 20 μg GST-17NAnk (or GST) on 10 μl glutathione-Sepharose, 20 μg His6-CSPα or His6-SNAP25b(93–206) (and competing amounts of the other), overnight at 4 °C, PBS washes, Coomassie staining
Settings: both partners purified

binding result: binds
B1: His6-CSPα (natural protein, bovine, UniProt Q29455 1-198, looked up)
chain: MADQRQRSLSTSGESLYHVLGLDKNATSDDIKKSYRKLALKYHPDKNPDNPEAADKFKEINNAHAILTDATKRNIYDKYGSLGLYVAEQFGEENVNTYFVLSSWWAKALFIFCGLLTCCYCCCCLCCCFNCCCGKCKPKAPEGEETEFYVSPEDLEAQLQSDEREAADTPIVIQPASATETTQLTADSHPSYHTDGFN
notes: CSPα, bovine cDNA; also called His-tagged CSPα; source: E. coli BL21(DE3)pLysS, purified (Ni2+-NTA)
